# Article PMC10229617 (Nature Communications, 2023)
# Target: the molecule itself
# Test: native MS; MS spectrum of the archaeal α/β assembly mixture (assembled without the 60 °C step), 150 mM ammonium acetate pH 7.5
protein,measurement,value
"T. acidophilum 20S proteasome α-ring (α7), tag cleaved (natural protein, Thermoplasma acidophilum, proteasome subunit alpha, Thermoplasma acidophilum; source: E. coli BL21(DE3), purified (HisTrap FF, TEV cleavage), in the assembly mixture) MQQGQMAYDRAITVFSPDGRLFQVEYAREAVKKGSTALGMKFANGVLLISDKKVRSRLIEQNSIEKIQLIDDYVAAVTSGLVADARVLVDFARISAQQEKVTYGSLVNIENLVKRVADQMQQYTQYGGVRPYGVSLIFAGIDQIGPRLFDCDPAGTINEYKATAIGSGKDAVVSFLEREYKENLPEKEAVTLGIKALKSSLEEGEELKAPEIASITVGNKYRIYDQEEVKKFL",stoichiometry N,7
